Data taken from patent publication US20250339569A1 (3B PHARMACEUTICALS, published 2025).
Starred links: 1 amine or outer side, 2 acyl side, 3 side chain; linkers in the order of their positions; H or OH if unused. Positions of bridges follow the written chain, without caps; N, C: chain ends. Non-standard residues stand in square brackets, D forms with d. Groups on a side chain read outwards from the residue. Primed or numbered codes have the meaning given here. No end group written: not given here. *: point of attachment. Af3(2Py6SaNH) = 3-amino-L-phenylalanine, ring amine acylated by 6-(sulfamoylamino)pyridine-2-carboxylic acid, NS(=O)(=O)Nc1cccc(C(=O)Nc2cccc(C[C@H](N[*:1])C(=O)[*:2])c2)n1; Af3(TzPr) = 3-amino-L-phenylalanine acylated on the ring amine with 3-(1H-1,2,4-triazol-3-yl)propanoic acid, O=C(CCc1nc[nH]n1)Nc1cccc(C[C@H](N[*:1])C(=O)[*:2])c1; Af3(Ac-Glu) = 3-aminophenylalanine acylated on the ring amine with N-acetyl-glutamic acid, CC(=O)N[C@@H](CCC(=O)[*:3])C(=O)Nc1cccc(C[C@H](N[*:1])C(=O)[*:2])c1; Af3(HO-Succinyl) = 3-aminophenylalanine with succinyl (free acid) on the ring amine, O=C(CCC(=O)[*:3])Nc1cccc(C[C@H](N[*:1])C(=O)[*:2])c1; Eem = S-benzyl-cysteine-sulfone, O=C([C@H](CS(=O)(=O)Cc1ccccc1)N[*:1])[*:2]; APAc″ = 2-(4-(amino)piperidin-1-yl)acetic acid, NC1CCN(CC(=O)*)CC1; DOTA = O=C(O)CN1CCN(CC(=O)O)CCN(CC(=O)*)CCN(CC(=O)O)CC1; PPAc = 4-carboxymethyl piperazine linker; mXylylene = c1cc(C[*:1])cc(C[*:2])c1; tBuAla = CC(C)(C)C[C@H](N)C(=O)O; NMeD = CN[C@@H](CC(=O)O)C(=O)O; N4BzlCl = not defined here; hSer = N[C@@H](CCO)C(=O)O; AGLU′ = not defined here; APAc = not defined here; Apr = not defined here; Dap = NC[C@H](N)C(=O)O; AEEA = NCCOCCOCC(=O)O; Nlys = NCCCCNCC(=O)O; Ttds″ = Ttds spacer; Bn = c1ccc(C*)cc1

B1: 3BP-4337 (peptide)
peptide: VDCE[dP]DWLTW[Dap]C-NH2
modifications: lactam 2-11; linker 3-12 via mXylylene; not fully specified (N-terminus); also: indium complexed by DOTA
B2: 3BP-3905 (peptide)
peptide: {DOTA-APAc}-VYCE[dP]DWLTWSC-NH2
modifications: linker 3-12 via mXylylene; reading uncertain; also: ['indium complexed by DOTA']
B3: 3BP-3328 (peptide)
peptide: VYCEGDWLTWQC-NH2
modifications: linker 3-12 via mXylylene; not fully specified (N-terminus); also: indium complexed by DOTA
B4: 3BP-3280 (peptide)
peptide: Ac-VYCE[dA]DWLTWAC-NH2
modifications: linker 3-12 via mXylylene
SMILES: CC(=O)N[C@H](C(=O)N[C@@H](Cc1ccc(O)cc1)C(=O)N[C@H]1CSCc2cccc(c2)CSC[C@@H](C(N)=O)NC(=O)[C@H](C)NC(=O)[C@H](Cc2c[nH]c3ccccc23)NC(=O)[C@H]([C@@H](C)O)NC(=O)[C@H](CC(C)C)NC(=O)[C@H](Cc2c[nH]c3ccccc23)NC(=O)[C@H](CC(=O)O)NC(=O)[C@@H](C)NC(=O)[C@H](CCC(=O)O)NC1=O)C(C)C
B5: 3BP-4264 (peptide)
peptide: {DOTA}-VDCE[dP]DWLTW[Dap]C-NH2
modifications: lactam 2-11; linker 3-12 via mXylylene
SMILES: CC(C)C[C@@H]1NC(=O)[C@H](Cc2c[nH]c3ccccc23)NC(=O)[C@H](CC(=O)O)NC(=O)[C@H]2CCCN2C(=O)[C@H](CCC(=O)O)NC(=O)[C@@H]2CSCc3cccc(c3)CSC[C@@H](C(N)=O)NC(=O)[C@H](CNC(=O)C[C@H](NC(=O)[C@@H](NC(=O)CN3CCN(CC(=O)O)CCN(CC(=O)O)CCN(CC(=O)O)CC3)C(C)C)C(=O)N2)NC(=O)[C@H](Cc2c[nH]c3ccccc23)NC(=O)[C@H]([C@@H](C)O)NC1=O

Legend:
[1] = target: T1, Fc-fusion protein of human carbonic anhydrase IX (human, UniProt Q16790 38-414); assay: SPR, captured hCAIX-Fc; pKD category A: >8.0
Protocol: (§1) Stock solutions of test compounds were prepared by dissolving each compound in DMSO. DMSO stock solution were diluted 1:1000 in Running Buffer without DMSO. […] SPR binding analyses were performed in Single Cycle Kinetic (SCK) mode at 25° C.
(§2) For each test compound, SPR raw data in the form of resonance units (RU) were plotted as sensorgrams using the Biacore™ T200 control software. The signal from the blank sensorgram was subtracted from that of the test compound sensorgram (blank corrected). The blank corrected sensorgram was corrected for baseline drift by subtracting the sensorgram of a SCK run without the test compound (running buffer only). […] Raw data and fit results were imported as text files in IDBS. The pKD value (negative decadic logarithm of dissociation constant) was calculated in the IDBS excel template.

[2] = target: T1, Fc-fusion protein of human carbonic …; assay: SPR, captured hCAIX-Fc; t1/2 category A: >15.0 min
Protocol: as §1, §2

[3] = target: T1, Fc-fusion protein of human carbonic …; assay: SPR, captured hCAIX-Fc; t1/2 category B: 5.1-15.0 min
Protocol: as §1, §2

Binder	pKD [1]	t1/2 (half-life of the complex, SPR) [2]	t1/2 (half-life of the complex, SPR) [3]
{DOTA-APAc″}-VYCE[dP]D[Af3(Ac-Glu)]LTWSC-NH2 (linker 3-12 via mXylylene) [3BP-4361]	> 8 pkd	> 15 min	–
{DOTA-APAc}-VYCE[dP][Eem]WLTWSC-NH2 (linker 3-12 via mXylylene; not fully specified; reading uncertain) [3BP-4123]	> 8 pkd	> 15 min	–
B1	> 8 pkd	> 15 min	–
{DOTA-APAc″}-VYCE[dP]D[Af3(TzPr)]LTWSC-NH2 (linker 3-12 via mXylylene) [3BP-4324]	> 8 pkd	> 15 min	–
{DOTA-APAc}-VYCE[dP][NMeD]WLTWSC-NH2 (linker 3-12 via mXylylene; reading uncertain) [3BP-4107]	> 8 pkd	> 15 min	–
{DOTA-PPAc}-QCE[dP]D[Af3(2Py6SaNH)]LTWSC-NH2 (linker 2-11 via mXylylene) [3BP-4514]	–	–	5.1 to 15 min
B2	> 8 pkd	> 15 min	–
{DOTA-APAc″}-VYCE[dP]DW[tBuAla]TWSC-NH2 (linker 3-12 via mXylylene) [3BP-4142]	> 8 pkd	> 15 min	–
{DOTA-Ttds″}-VYCE[dA]DWLTWAC-NH2 (linker 3-12 via mXylylene; not fully specified) [3BP-3279]	> 8 pkd	–	5.1 to 15 min
{DOTA-APAc}-VYCE[dP]DWLTWRC-NH2 (linker 3-12 via mXylylene; reading uncertain) [3BP-3599]	> 8 pkd	–	5.1 to 15 min
{DOTA-APAc}-VYCE[dP]C(Bn)WLTWSC-NH2 (linker 3-12 via mXylylene; not fully specified; reading uncertain) [3BP-4128]	> 8 pkd	> 15 min	–
Ac-VYCE[dP]DWLTWE([Apr-DOTA])C-NH2 (linker 3-12 via mXylylene; reading uncertain) [3BP-3478]	> 8 pkd	> 15 min	–
B3	> 8 pkd	–	5.1 to 15 min
Ac-VFCE[dP]DWLTWE([Apr-DOTA])C-NH2 (linker 3-12 via mXylylene; reading uncertain) [3BP-3874]	> 8 pkd	–	5.1 to 15 min
{DOTA-APAc}-VSCE[dP]DWLTWSC-NH2 (linker 3-12 via mXylylene; reading uncertain) [3BP-4105]	> 8 pkd	–	5.1 to 15 min
Ac-SYCE[dP]DWLTWE([Apr-DOTA])C-NH2 (linker 3-12 via mXylylene; reading uncertain) [3BP-3873]	> 8 pkd	–	5.1 to 15 min

Binder	pKD [1]	t1/2 (half-life of the complex, SPR) [2]	t1/2 (half-life of the complex, SPR) [3]
{DOTA-APAc}-VYCE[dP]DWLE(AGLU′)WSC-NH2 (linker 3-12 via mXylylene; reading uncertain) [3BP-4121]	> 8 pkd	> 15 min	–
{DOTA-APAc″}-VYCE[dP]E(N4BzlCl)WLTWSC-NH2 (linker 3-12 via mXylylene; reading uncertain) [3BP-4334]	> 8 pkd	> 15 min	–
Ac-SYCE[dP]DWLTWE([Apr-AEEA-DOTA])C-NH2 (linker 3-12 via 3MeBn; reading uncertain) [3BP-3732]	> 8 pkd	–	5.1 to 15 min
{DOTA-APAc″}-VYCE[dP]DWLTWAC-NH2 (linker 3-12 via mXylylene) [3BP-3432]	> 8 pkd	> 15 min	–
{DOTA-APAc}-VYCE[dP]NWLTWSC-NH2 (linker 3-12 via mXylylene; reading uncertain) [3BP-4103]	> 8 pkd	> 15 min	–
Ac-VRCE[dP]DWLTWE([Apr-AEEA-DOTA])C-NH2 (linker 3-12 via 3MeBn; reading uncertain) [3BP-3734]	> 8 pkd	–	5.1 to 15 min
{DOTA-APAc}-VE(AGLU′)CE[dP]DWLTWSC-NH2 (linker 3-12 via mXylylene; reading uncertain) [3BP-4112]	> 8 pkd	–	5.1 to 15 min
{DOTA-APAc}-VYCQ[dP]DWLTWSC-NH2 (linker 3-12 via mXylylene; reading uncertain) [3BP-4104]	> 8 pkd	–	5.1 to 15 min
{DOTA-APAc}-VYCE[dP]DWLTWEC-NH2 (linker 3-12 via mXylylene; not fully specified (residue 11); reading uncertain) [3BP-4122]	> 8 pkd	> 15 min	–
B4	> 8 pkd	–	5.1 to 15 min
{DOTA-APAc}-VYCE[dP][hSer]WLTWSC-NH2 (linker 3-12 via mXylylene; reading uncertain) [3BP-4102]	> 8 pkd	> 15 min	–
{DOTA-APAc″}-VECE[dP]DWLTW[Dap]C-NH2 (lactam 2-11; linker 3-12 via mXylylene) [3BP-4175]	> 8 pkd	> 15 min	–
Ac-VYCE[Nlys](DOTA)DWLTWAC-NH2 (linker 3-12 via mXylylene) [3BP-3562]	> 8 pkd	> 15 min	–
B5	> 8 pkd	> 15 min	–
{DOTA-APAc″}-VYCE[dP]D[Af3(HO-Succinyl)]LTWSC-NH2 (linker 3-12 via mXylylene) [3BP-4237]	> 8 pkd	> 15 min	–
